The text below walks through data of PMC11430099.

In this series the test system is T1, CadX (single-chain homodimer, two identical CadX copies joined by GGGGSGGGGSGGGGS linker) (Streptococcus suis GZ0565), ORF:24397d24.
T1 sequence: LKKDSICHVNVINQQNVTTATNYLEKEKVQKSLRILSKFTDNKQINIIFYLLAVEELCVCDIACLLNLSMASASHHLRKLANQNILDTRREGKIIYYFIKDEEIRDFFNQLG
The series is described as follows: EMSA.

On to “TTTGGATGGCAGGGCTTTTTTATATTTGGTACACTAACTTCTTATCTATATTTTGGTGGAGCTGAAGTTGACATCTACAATGTTTAATGTTAGAATACATTCAAAAATATATTTGAATGAGGTCTTTT (double strand) [cadDX promoter fragment]”, for which the binding result is on record as “binds”.
